Article PMC8523820

Columns and labels:
[1] = target: mouse ASIC1a channel (mouse (endogenous in C57BL/6 striatal neurons)) (UniProt Q6NXK8)
[2] = target: human ASIC1a channel (human (endogenous in HEK293)) (UniProt P78348)
[3] = target: eGFP-ASIC1a (rat ASIC1a subunit fused to eGFP) (rat) (UniProt P55926)
[4] = target: mouse ASIC1a channel (mouse (endogenous in C57BL/6 striatal neurons)) (UniProt Q6NXK8); remark: listed apart in the source
[5] = target: human ASIC1a channel (human (endogenous in HEK293)) (UniProt P78348); remark: listed apart in the source
[6] = target: eGFP-ASIC1a (rat ASIC1a subunit fused to eGFP) (rat) (UniProt P55926); remark: listed apart in the source

Sequence of UniProt P78348 (P78348 whole entry, the tested form may be a part): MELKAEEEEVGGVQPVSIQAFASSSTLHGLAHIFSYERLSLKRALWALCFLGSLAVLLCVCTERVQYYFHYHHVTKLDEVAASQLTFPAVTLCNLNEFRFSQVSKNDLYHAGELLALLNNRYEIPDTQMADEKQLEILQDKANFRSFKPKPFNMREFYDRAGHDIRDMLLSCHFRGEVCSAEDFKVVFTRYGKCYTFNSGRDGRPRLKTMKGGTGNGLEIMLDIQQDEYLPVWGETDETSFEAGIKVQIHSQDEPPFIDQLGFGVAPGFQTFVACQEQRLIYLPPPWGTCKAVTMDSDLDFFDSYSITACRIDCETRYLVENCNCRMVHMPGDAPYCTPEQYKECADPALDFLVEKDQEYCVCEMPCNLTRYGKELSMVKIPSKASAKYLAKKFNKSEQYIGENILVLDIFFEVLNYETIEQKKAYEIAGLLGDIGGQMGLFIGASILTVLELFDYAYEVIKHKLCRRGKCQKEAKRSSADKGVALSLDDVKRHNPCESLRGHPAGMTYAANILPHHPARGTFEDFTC
Sequence of UniProt P55926 (P55926 whole entry, the tested form may be a part): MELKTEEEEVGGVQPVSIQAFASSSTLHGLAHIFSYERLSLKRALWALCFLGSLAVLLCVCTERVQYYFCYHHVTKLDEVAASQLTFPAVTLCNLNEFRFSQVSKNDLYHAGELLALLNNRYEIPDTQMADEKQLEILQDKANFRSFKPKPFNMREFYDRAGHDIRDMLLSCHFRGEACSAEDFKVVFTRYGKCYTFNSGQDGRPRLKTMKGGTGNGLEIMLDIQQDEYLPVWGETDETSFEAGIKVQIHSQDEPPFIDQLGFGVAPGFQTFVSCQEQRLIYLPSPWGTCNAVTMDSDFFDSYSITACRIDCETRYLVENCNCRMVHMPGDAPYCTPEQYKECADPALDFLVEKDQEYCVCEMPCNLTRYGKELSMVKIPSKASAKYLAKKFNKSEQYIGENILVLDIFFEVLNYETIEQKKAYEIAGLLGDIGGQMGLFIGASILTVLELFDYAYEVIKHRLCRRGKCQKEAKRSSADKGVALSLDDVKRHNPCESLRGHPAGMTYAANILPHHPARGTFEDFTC
Sequence of UniProt Q6NXK8 (Q6NXK8 whole entry): as the sequence (P55926 whole entry, the tested form may be a part) above, with S476N counted along it

## MitTx (complex)
[1]
  pERK/tERK relative to control, Western blot of lysates of mouse striatal neurons treated with 20 nM MitTx for 2 min (fold of control): 5.39
[2]
  pERK/tERK relative to control, Western blot of lysates of HEK cells treated with 20 nM MitTx for 2 to 10 min (7.98 at 2 min, 10.90 at 10 min) (fold of control): 10.9
[3]
  pERK/tERK relative to untreated eASICx1 cells, Western blot of HEK cells transfected with eGFP-ASIC1a (x1) and treated with MitTx (fold of eASICx1 levels): 3.42
  pERK/tERK relative to untreated eASICx1 cells, Western blot of HEK cells transfected with eGFP-ASIC1a (x3) and treated with MitTx (fold of eASICx1 levels): 9.96
[4]
  pCaMKII/Tub relative to control, Western blot of lysates of mouse striatal neurons treated with 20 nM MitTx for 2 min (fold of control): 6.37
[5]
  pCaMKII/Tub relative to control, HEK cells pre-incubated with 20 nM Pctx-1 for 30 min, then MitTx for 2 min (fold of control): 1.17
  pCaMKII/Tub relative to control, Western blot of lysates of HEK cells treated with 20 nM MitTx for 2 to 10 min (8.88 at 2 min, 10.76 at 10 min) (fold of control): 10.8
  pERK/tERK relative to control, HEK cells pre-incubated with 20 nM Pctx-1 for 30 min, then MitTx for 2 to 10 min (1.18 at 2 min, 1.42 at 10 min) (fold of control): 1.42
[6]
  pERK/tERK relative to untreated eASICx1 cells, HEK cells transfected with eGFP-ASIC1a (x1), pre-incubated with Pctx-1, then MitTx (fold of eASICx1 levels): 1.1
